This passage reports Kd, koff and kon results from article PMC5473249.

The target of this test is FabXol3 (omalizumab-derived Fab with three point mutations). Description: SPR; FabXol3, FabXol or intact omalizumab amine-coupled at low density; IgE-Fc flowed over, 2-fold dilutions from 100 nM; 20 mM HEPES pH 7.4, 150 mM NaCl, 0.005% P-20; 25 °C; monophasic kinetics at low concentrations. On the technique in general: SPR reads the build-up and loss of mass on a sensor chip optically.

The term Kd denotes a measure of binding affinity in units of concentration. As a reminder, the koff is the rate constant with which the complex falls apart. Read a low koff as slow dissociation. The kon is a measure of how fast the partners come together. Higher therefore signals fast association.

B1: IgE-Fc, P01854 105-427 (domain or fragment)
chain: DIVASRDFTPPTVKILQSSCDGGGHFPPTIQLLCLVSGYTPGTIQITWLEDGQVMDVDLSTASTTQEGELASTQSELTLSQKHWLSDRTYTCQVTYQGHTFEDSTKKCADSNPRGVSAYLSRPSPFDLFIRKSPTITCLVVDLAPSKGTVQLTWSRASGKPVNHSTRKEEKQRNGTLTVTSTLPVGTRDWIEGETYQCRVTHPHLPRALMRSTTKTSGPRAAPEVYAFATPEWPGSRDKRTLACLIQNFMPEDISVQWLHNEVQLPDARHSTTQPRKTKGSGFFVFSRLEVTRAEWEQKDEFICRAVHEAASPSQTVQRAVSVNPGK
modifications: not checked
The molecule B1 had an equilibrium dissociation constant (Kd) of 1 nM, a dissociation rate constant (koff) of 0.0008 s⁻¹ and a kon of 1.2e+06 M⁻¹ s⁻¹.
